The numbers were not newly measured in paper PMC2786309 (Bioconjugate chemistry, 2009), which cites them from elsewhere.

Data set [1] relates to MC1 receptor present on melanoma cells. Conditions: statement in method text, no reference given.
The test system of data set [2] is B16/F1 melanoma-bearing C57 mice. Conditions: mouse, in vivo.

With NDP-MSH, the “Affinity for the MC1 receptor” value in data set [1] is reported as “picomolar affinity”. Turning to “^111In-DOTA-Gly-Glu-c[Lys-Nle-Glu-His-DPhe-Arg-Trp-Gly-Arg-Pro-Val-Asp] (FRWGRPVD; not fully specified; 111In-DOTA, Gly-Glu-Lys-Nle-Glu-His N-term, cyclic; printed: Phe-Arg-Trp-Gly-Arg-Pro-Val-Asp) [^111In-DOTA-GlyGlu-CycMSH]”, the “Renal uptake reduction compared to 111In-DOTA-CycMSH” value in data set [2] is reported as 44%. Besides, the Melanoma uptake in data set [2] (2 h) is recorded as 10.40 ± 1.40 % ID/g. In the case of “^111In-DOTA-[β-Ala^3, Nle^4, Asp^5, D-Phe^7, Lys^10]-α-MSH3-10 [^111In-DOTA-MSHoct]”, in data set [2] (4 h), the Tumor uptake is listed as 4.31 ± 0.30 % ID/g.
